Tests used:
[1] = molecular target: purified UNC-16-LZII domain fragment (260–849 aa) (C. elegans); experiment: native gel or EMSA; native-PAGE of purified UNC-16-LZII domain and its L360P variant (260–849 aa); dimer formation; three independent experiments
[2] = molecular target: EGL-8 used as bait in GST pull-downs of UNC-16 domains (Fig. 5D, 7J) (UniProt G5EBH0); experiment: GST pull-down; conditions: GST::EGL-8 bait (x label in J' printed as GST::RAB-8); in vitro translated HA-tagged prey; three independent replicates; parent: est. 3.2; read off a plot
[3] = molecular target: RAB-10 used in GST pull-downs, loaded with GTPγS or GDP (UniProt Q94148); experiment: GST pull-down; conditions: GST::RAB-10 loaded with GTPγS; in vitro translated HA-tagged prey; three independent replicates; parent: est. 6.1; read off a plot
[4] = molecular target: T1, purified UNC-16-LZII domain fragment (260–849 aa), L360P variant; experiment: Native-PAGE; conditions: chain shown with the change; three independent experiments; P = 0.0034; parent: est. 0.86; read off a plot
T1 chain: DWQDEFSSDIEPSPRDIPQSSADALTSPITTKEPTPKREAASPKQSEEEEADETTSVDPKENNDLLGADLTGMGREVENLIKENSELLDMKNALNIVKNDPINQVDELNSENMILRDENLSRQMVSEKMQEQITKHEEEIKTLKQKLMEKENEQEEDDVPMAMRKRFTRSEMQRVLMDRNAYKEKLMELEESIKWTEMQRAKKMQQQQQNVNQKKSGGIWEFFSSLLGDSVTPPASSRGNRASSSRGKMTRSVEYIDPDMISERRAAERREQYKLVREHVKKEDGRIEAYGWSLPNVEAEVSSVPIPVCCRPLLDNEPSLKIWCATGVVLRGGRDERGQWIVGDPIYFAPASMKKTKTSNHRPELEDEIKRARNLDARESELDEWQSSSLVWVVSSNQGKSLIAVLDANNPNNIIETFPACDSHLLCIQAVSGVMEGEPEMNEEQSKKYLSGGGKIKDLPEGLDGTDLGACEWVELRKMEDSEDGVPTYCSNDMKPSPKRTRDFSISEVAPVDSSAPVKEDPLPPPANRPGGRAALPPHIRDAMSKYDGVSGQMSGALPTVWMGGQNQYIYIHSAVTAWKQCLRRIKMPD

Chain of UniProt G5EBH0 (G5EBH0 whole entry, the tested form may be a part): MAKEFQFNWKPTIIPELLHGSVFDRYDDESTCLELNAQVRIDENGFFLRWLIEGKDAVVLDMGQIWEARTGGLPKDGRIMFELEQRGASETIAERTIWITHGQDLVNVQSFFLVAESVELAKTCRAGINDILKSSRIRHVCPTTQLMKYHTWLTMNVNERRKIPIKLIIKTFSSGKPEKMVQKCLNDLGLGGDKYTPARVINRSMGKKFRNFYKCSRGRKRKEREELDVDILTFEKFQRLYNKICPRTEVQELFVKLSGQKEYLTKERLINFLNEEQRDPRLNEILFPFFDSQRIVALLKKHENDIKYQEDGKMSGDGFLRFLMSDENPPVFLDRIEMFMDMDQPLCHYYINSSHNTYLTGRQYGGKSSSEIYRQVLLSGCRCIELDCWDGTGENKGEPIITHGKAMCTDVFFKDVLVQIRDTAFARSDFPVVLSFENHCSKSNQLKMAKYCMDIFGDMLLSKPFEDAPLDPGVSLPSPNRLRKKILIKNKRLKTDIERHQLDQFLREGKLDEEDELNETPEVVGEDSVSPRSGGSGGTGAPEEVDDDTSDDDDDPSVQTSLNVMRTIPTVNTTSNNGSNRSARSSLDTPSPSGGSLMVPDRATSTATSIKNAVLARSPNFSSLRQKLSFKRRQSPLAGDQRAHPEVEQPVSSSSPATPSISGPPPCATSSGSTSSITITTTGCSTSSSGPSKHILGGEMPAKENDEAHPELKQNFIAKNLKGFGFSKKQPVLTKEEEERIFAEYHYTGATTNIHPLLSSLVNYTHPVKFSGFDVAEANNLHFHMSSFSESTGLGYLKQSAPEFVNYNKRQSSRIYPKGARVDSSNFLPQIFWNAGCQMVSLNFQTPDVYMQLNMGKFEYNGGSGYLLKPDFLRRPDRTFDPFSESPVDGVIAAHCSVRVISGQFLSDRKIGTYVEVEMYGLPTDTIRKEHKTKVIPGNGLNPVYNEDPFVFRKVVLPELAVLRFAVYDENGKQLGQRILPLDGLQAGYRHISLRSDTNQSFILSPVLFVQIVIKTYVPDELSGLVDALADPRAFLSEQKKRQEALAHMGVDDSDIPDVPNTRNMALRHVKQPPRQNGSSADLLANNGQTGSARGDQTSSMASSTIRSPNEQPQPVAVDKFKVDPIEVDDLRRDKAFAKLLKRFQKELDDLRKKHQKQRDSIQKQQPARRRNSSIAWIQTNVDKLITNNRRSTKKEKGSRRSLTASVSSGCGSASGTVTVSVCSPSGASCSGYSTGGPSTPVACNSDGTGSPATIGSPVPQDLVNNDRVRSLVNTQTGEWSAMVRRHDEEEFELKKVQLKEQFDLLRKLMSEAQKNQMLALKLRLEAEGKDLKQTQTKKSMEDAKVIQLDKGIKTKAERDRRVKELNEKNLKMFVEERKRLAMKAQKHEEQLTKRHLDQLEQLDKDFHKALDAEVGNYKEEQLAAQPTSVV
Chain of UniProt Q94148 (Q94148 whole entry, the tested form may be a part): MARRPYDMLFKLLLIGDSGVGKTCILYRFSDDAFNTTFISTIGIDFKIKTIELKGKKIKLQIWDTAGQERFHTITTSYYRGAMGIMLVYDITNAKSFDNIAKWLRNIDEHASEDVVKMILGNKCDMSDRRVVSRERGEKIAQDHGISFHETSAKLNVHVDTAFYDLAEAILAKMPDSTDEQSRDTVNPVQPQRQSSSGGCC

## purified UNC-16-LZII domain fragment (260–849 aa) (domain or fragment)
[1]
  stoichiometry N: 2

## HA-tagged UNC-16 fragment containing the LZII domain (in vitro translated) L360P
[2]
  response (binding/input): 0.65

## HA-tagged UNC-16 fragment containing the LZII domain (in vitro translated) L353A; N354A; I355A; V356A; K357A; N358A; D359A; L360A; I361A; N362A; Q363A; V364A; D365A; E366A; L367A
[3]
  response (binding/input): 0.1
[2]
  response (binding/input): 0.1

B1: purified UNC-16-LZII domain fragment (260–849 aa) L360P (protein)
chain: DWQDEFSSDIEPSPRDIPQSSADALTSPITTKEPTPKREAASPKQSEEEEADETTSVDPKENNDLLGADLTGMGREVENLIKENSELLDMKNALNIVKNDPINQVDELNSENMILRDENLSRQMVSEKMQEQITKHEEEIKTLKQKLMEKENEQEEDDVPMAMRKRFTRSEMQRVLMDRNAYKEKLMELEESIKWTEMQRAKKMQQQQQNVNQKKSGGIWEFFSSLLGDSVTPPASSRGNRASSSRGKMTRSVEYIDPDMISERRAAERREQYKLVREHVKKEDGRIEAYGWSLPNVEAEVSSVPIPVCCRPLLDNEPSLKIWCATGVVLRGGRDERGQWIVGDPIYFAPASMKKTKTSNHRPELEDEIKRARNLDARESELDEWQSSSLVWVVSSNQGKSLIAVLDANNPNNIIETFPACDSHLLCIQAVSGVMEGEPEMNEEQSKKYLSGGGKIKDLPEGLDGTDLGACEWVELRKMEDSEDGVPTYCSNDMKPSPKRTRDFSISEVAPVDSSAPVKEDPLPPPANRPGGRAALPPHIRDAMSKYDGVSGQMSGALPTVWMGGQNQYIYIHSAVTAWKQCLRRIKMPD
[4]
  other: ratio of dimer to monomer: 0.58

Reference: paper PMC11891140
